In US20170369542A1 (Pieris, published 2017):
Where a chain is given by its changes, count along the chain named.

B1: lipocalin mutein of SEQ ID NO: 4 (designed binder)
chain: QDSTSDLIPAPPLSKVPLQQNFQDNQFHGKWYVVGVAGNEMLREDKDPLKMLATIYELKEDKSYNVTRVMFEYKKCVYLIETFVPGSQPGEFTLGTIKSVPGLTSGLVRVVSTNYNQHAMVFFKRVWQNREVFWITLYGRTKELTSELKENFIRFSKSLGLPENHIVFPVPIDQCIDG
notes: also called Lcn2 mutein
B2: lipocalin mutein of SEQ ID NO: 6 (designed binder)
chain: QDSTSDLIPAPPLSKVPLQQNFQDNQFHGKWYVVGLAGNEILREDKDPLKMWATIYELKEDKSYNVTRVQFGEKKCGYGIETFVPGSQPGEFTLGSIKSVPGGTSRLVRVVSTNYNQHAMVFFKFVWQNREVFWITLYGRTKELTSELKENFIRFSKSLGLPENHIVFPVPIDQCIDG
notes: also called Lcn2 mutein
B3: lipocalin mutein of SEQ ID NO: 1, linked to albumine-binding domain (ABD) (SEQ ID NO: 15) (designed binder)
chain: QDSTSDLIPAPPLSKVPLQQNFQDNQFHGKWYVVGLAGNEVLREDKDPMKMWATIYELEEDKSYNVTIVMFLAKKCEYLFQTFVPGSQPGEFTLGDIKSSPGRTSGLVRVVSTNYNQHAMVFFKVVWQNREVFWITLYGRTKELTSELKENFIRFSKSLGLPENHIVFPVPIDQCIDGSAGAVDANSLAEAKVLANRELDKYGVSDYYKNLINNAKTVEGVKALIDEILAALPSAWSHPQFEK
notes: also called ABD-fusion protein
B4: lipocalin mutein of SEQ ID NO: 2 (designed binder)
chain: QDSTSDLIPAPPLSKVPLQQNFQDNQFHGKWYVVGTAGNSILREDKDPQKMWATIYELKEDKSYNVTRVFFEGKKCRYVIETFVPGSQPGEFTLGKIKSAPGGTSILVRVVSTNYNQHAMVFFKVVWQNRELFWITLYGRTKELTSELKENFIRFSKSLGLPENHIVFPVPIDQCIDG
notes: also called Lcn2 mutein
B5: lipocalin mutein of SEQ ID NO: 1 (designed binder)
chain: QDSTSDLIPAPPLSKVPLQQNFQDNQFHGKWYVVGLAGNEVLREDKDPMKMWATIYELEEDKSYNVTIVMFLAKKCEYLFQTFVPGSQPGEFTLGDIKSSPGRTSGLVRVVSTNYNQHAMVFFKTVWQNREVFWITLYGRTKELTSELKENFIRFSKSLGLPENHIVFPVPIDQCIDG
notes: also called Lcn2 mutein; hNGAL mutein
B6: lipocalin mutein of SEQ ID NO: 11 (designed binder)
chain: B5 chain with V41I, E59K, T125V, E147G
notes: also called Lcn2 mutein
B7: lipocalin mutein of SEQ ID NO: 14, linked to PEG40 (designed binder)
chain: B5 chain with S87C
modifications: branched 40k PEG-maleimide on the free Cys at position 87
notes: hNGAL mutein with Ser 87 back-mutated to Cys and PEGylated there
B8: lipocalin mutein of SEQ ID NO: 8 (designed binder)
chain: B5 chain with E59K, F71P, K74E, D96G, S100G, T125V, I135V
notes: also called Lcn2 mutein
B9: lipocalin mutein of SEQ ID NO: 7 (designed binder)
chain: QDSTSDLIPAPPLSKVPLQQNFQDNQFHGKWYVVGLAGNRVLREDKDPQKMFATIYELKEDKSYNVTGVDFRTKKCLYSIGTFVPGSQPGEFTLGVIKSQPGWTSYLVRVVSTNYNQHAMVFFKTVWQNREVFWITLYGRTKELTSELKENFIRFSKSLGLPENHIVFPVPIDQCIDG
notes: also called Lcn2 mutein
B10: lipocalin mutein of SEQ ID NO: 10 (designed binder)
chain: QDSTSDLIPAPPLSKVPLQQNFQDNQFHGKWYVVGLAGNEILREDKDPMKMWATIYELKEDRSYNVTIVMFLAKKCEYLFQTFVPGSQPGEFTLGDIKSSPGRTSGLVRVVSTNYNQHAMVFFKVVWQNREVFWITLYGRTKELTPELKENFIRFSKSLGLPENHIVFPVPIDQCIDGF
notes: also called Lcn2 mutein
B11: lipocalin mutein of SEQ ID NO: 5 (designed binder)
chain: QDSTSDLIPAPPLSKVPLQQNFQDNQFHGKWYVVGAAGNSLLREDKDPMKMWATIYELKEDKSYNVTRVNFGGKKCSYLIETFVPGSQPGEFTLGSIKSRPGATSVLVRVVSTNYNQHAMVFFKLVTQNREVFWITLYGRTKELTSELKENFIRFSKSLGLPENHIVFPVPIDQCIDG
notes: also called Lcn2 mutein
B12: lipocalin mutein of SEQ ID NO: 3 (designed binder)
chain: QDSTSDLIPAPPLSKVPLQQNFQDNQFHGKWYVVGVAGNGLLREDKDPLKMHATIYELKEDKSYNVTRVLFVRKKCRYYISTFVPGSQPGEFTLGRIKSEPGRTSFLVRVVSTNYNQHAMVFFKMVWQNREVFWITLYGRTKELTSELKENFIRFSKSLGLPENHIVFPVPIDQCIDG
notes: also called Lcn2 mutein
B13: lipocalin mutein of SEQ ID NO: 9 (designed binder)
chain: B5 chain with E59K, F71S, T125V, E147G
notes: also called Lcn2 mutein
B14: lipocalin mutein of SEQ ID NO: 12 (designed binder)
chain: B5 chain with E59K, K74E, K75E, T125V, E150K
notes: also called Lcn2 mutein

Biological target: T1, synthetic non-modified human Hepcidin-25 (human, not fully specified)
T1 peptide: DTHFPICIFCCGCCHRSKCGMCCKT
Assay: cell-based or functional assay
With B1 the “IC50 of neutralization of hepcidin-induced (40 nM) internalization and degradation of FPN-GFP in T-REx-293 cells, GFP fluorescence by flow cytometry” value (“IC50 of neutralization … by flow cytometry” below) was 62 nM. With B2 the “IC50 of neutralization … by flow cytometry” value was 65 nM. B3 was tested, and the “IC50 of neutralization … by flow cytometry” value was 39 nM. In the case of B4, the “IC50 of neutralization … by flow cytometry” value is reported as 62 nM. B5 was tested, and the “IC50 of neutralization … by flow cytometry” value was 66 nM. In the case of B6, the “IC50 of neutralization … by flow cytometry” value is reported as 31 nM. For B7, the “IC50 of neutralization … by flow cytometry” value was 25 nM. In the case of B8, the “IC50 of neutralization … by flow cytometry” value is reported as 31 nM. With B9 the “IC50 of neutralization … by flow cytometry” value was 79 nM. B10 was tested, and the “IC50 of neutralization … by flow cytometry” value was 25 nM.

Biological target: T2, cynomolgus Hepcidin-25 (cynomolgus, UniProt A7XEI3 60-84, not fully specified)
T2 construct: mature
T2 peptide: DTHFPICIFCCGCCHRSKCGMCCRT
Assay: direct ELISA on cynomolgus hep-25, mutein titrated
Experimental: (§1) A “direct” ELISA was performed to verify the binding affinity and specificity of the selected Lcn2 muteins. Therefore, a constant concentration of 1 μg/ml C-terminal biotinylated hepcidin (Bachem AG, CH) was captured on the surface of a polystyrol plate (Greiner, GE) via Neutravidin (Thermo Scientific, 5 μg/ml). Two step dilution series of purified Lcn2 muteins were incubated with the captured hepcidin for 1 h at room temperature and detected either via the Strep-tag II using a rabbit anti-strep-tag II polyconal antibody (GenScript, USA) or by using a scaffold-specific polyclonal rabbit antibody. In both cases an anti rabbit IgG-HRP conjugate (Abcam, UK) was employed as secondary detection antibody.
(§2) The absorption ΔA at […] was measured in an ELISA reader (Tecan, GE) and the data were fitted with Graphpad Prism software (Statcom, USA).
For B11, the Kd was 6.83 nM. With B1 the Kd was 2.03 nM. In the case of B2, the Kd is reported as 0.79 nM. B3 showed a Kd of 0.22 nM. Binder B4 has a Kd of 3.15 nM. B12 gave a Kd of 0.59 nM. Work on B5 yielded a Kd of 0.43 nM. With B13 the Kd was 1.14 nM. For B6, the Kd was 0.61 nM. Work on B14 yielded a Kd of 0.96 nM. B7 was tested, and the Kd was 1.36 nM. For B8, the Kd was 0.67 nM. B9 was tested, and the Kd was 0.22 nM. Binder B10 has a Kd of 0.82 nM.

Biological target: T2, cynomolgus Hepcidin-25
Assay: SPR, Biacore T100, mutein amine-coupled to CM5 chip, hepcidin as analyte, 25 C
Experimental: (§3) Lipocalin muteins were immobilized to a CM5 sensor chip using standard amine chemistry: The surface of the chip was activated using EDC and NHS. Subsequently, 20 μg/mL lipocalin mutein solutions in 10 mM sodium acetate pH 4.5 (60 μg/mL in 10 mM sodium acetate pH 4.0 for pegylated lipocalin mutein) were applied at a flow rate of 5 μL/min until a surface density of 500-700 resonance units (RU) for non-modified lipocalin muteins and of approximately 1600 RU for pegylated lipocalin with the sequence of SEQ ID NO: 13 was achieved. Residual activated groups were saturated with ethanolamine. The reference channels were treated with EDC/NHS following ethanolamine (blank immobilization). All reagents and materials were purchased from GE Healthcare.
(§4) Serial dilutions of human and cynomolgus Hepcidin-25 in running buffer (HBS-EP+, GE Healthcare, BR-1006-68) were applied to the prepared surface. The following parameters were used for the binding assay: contact time 60 s, dissociation time 180-360 s, flow rate 30 μL/min. All measurements were performed on a Biacore T100 instrument (GE Healthcare) at 25° C.
(§5) Data were evaluated with Biacore T100 Evaluation software (V 2.0.1). Double referencing was used. The 1:1 Binding model (Langmuir) was used to fit the raw data.
B5 was tested, and the “fold higher affinity compared to the human target” value was ~2 fold. In the case of B8, the “fold higher affinity compared to the human target” value is reported as ~2 fold.

Biological target: T3, C-terminal biotinylated human Hepcidin-25 (human, not fully specified; biotinylated via a Lysine residue coupled to the C-terminus via a Mini-PEG linker)
T3 construct: Bought from Bachem AG; Captured on plates via Neutravidin; also called C-terminal biotinylated hepcidin; C-terminal biotinylated hHepcidin
T3 peptide: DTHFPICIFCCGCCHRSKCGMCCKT
Assay: direct ELISA, biotinylated hepcidin captured via Neutravidin, mutein titrated
Experimental: as §1, §2
For B11, the Kd was 4.13 nM. For B1, the Kd was 1.39 nM. In the case of B2, the Kd is reported as 0.76 nM. Binder B3 has a Kd of 0.48 nM. For B4, the Kd was 2.12 nM. Binder B12 has a Kd of 0.84 nM. Binder B5 has a Kd of 0.26 nM. With B13 the Kd was 0.75 nM. For B6, the Kd was 0.64 nM. With B14 the Kd was 0.64 nM. Work on B7 yielded a Kd of 2.18 nM. Work on B8 yielded a Kd of 0.66 nM. B9 was tested, and the Kd was 0.48 nM. B10 gave a Kd of 0.75 nM.

Biological target: T1, synthetic non-modified human Hepcidin-25
Assay: SPR (Biacore T100), mutein immobilized on CM5 chip, hepcidin-25 in solution, 1:1 model
Experimental: as §3, §4, §5
Work on B5 yielded a Kd of 0.589 nM, a koff of 0.00116 s⁻¹ and a kon of 1.97e+06 M⁻¹ s⁻¹. Binder B8 has a Kd of 0.123 nM, a koff of 0.000178 s⁻¹ and a kon of 1.45e+06 M⁻¹ s⁻¹.

Biological target: T2, cynomolgus Hepcidin-25
Assay: as above
Experimental: as §3, §4, §5
Binder B5 has a Kd of 0.332 nM, a koff of 0.000934 s⁻¹ and a kon of 2.84e+06 M⁻¹ s⁻¹. For B8, the Kd was 0.066 nM, the koff was 0.000245 s⁻¹ and the kon was 3.74e+06 M⁻¹ s⁻¹.

Biological target: T1, synthetic non-modified human Hepcidin-25
Assay: competition ELISA: non-biotinylated human hepcidin-25 titrated against a constant concentration of mutein; free mutein detected on plate-captured biotinylated human hepcidin
Experimental: The binding affinity of the Lcn2 muteins to non-modified hepcidin-25 in solution was evaluated in a competition ELISA approach. Therefore, a constant concentration of 1 μg/ml C-terminal biotinylated human hepcidin (Bachem AG, CH) was captured on the surface of a polystyrol plate (Greiner, GE) via Neutravidin (Thermo Scientific, 5 μg/ml, GE). In parallel a two step dilution series of non-biotinylated human hepcidin starting from 1 μM was incubated with a constant concentration of hepcidin-specific mutein for 1 h at room temperature in a non-protein binding 96 well polypropylene plate (Nunc, GE). The constant concentration of lipocalin muteins corresponds to the EC₅₀ of the respective muteins as determined in a direct ELISA as described above in this example. In the following the mixture of non-modified human hepcidin and lipocalin mutein was transferred onto the hepcidin-captured Neutravidin plate. The C-terminal biotinylated hepcidin was allowed to compete with the non-modified hepcidin for Anticalin binding for 20 min. at room temperature. During these 20 min, free lipcocalin mutein was bound to the captured hepcidin and detected via a rabbit anti-strep-tag II polyconal antibody (GenScript, USA). A goat anti-rabbit IgG-HRP conjugate (Abcam, UK) was employed as secondary detection antibody. Parallel to the competition assay, anticalin binding was determined on the same plate in a “direct” ELISA, in order to obtain a standard curve linking the RFU values to anticalin concentration. This curve was then used to standardize competition data to the level of anticalins bounds to the plate and fitted with Graphpad software. IC₅₀ values correspond to the half-maximum amount of lipocalin mutein bound to the plate.
Work on B11 yielded an IC50 of 10.8 nM. Binder B1 has an IC50 of 0.6 nM. Binder B2 has an IC50 of 1.7 nM. With B3 the IC50 was 0.37 nM. B4 gave an IC50 of 9 nM. For B12, the IC50 was 0.38 nM. For B5, the IC50 was 0.34 nM. B13 showed an IC50 of 0.12 nM. In the case of B6, the IC50 is reported as 0.11 nM. For B14, the IC50 was 0.17 nM. Binder B7 has an IC50 of 1.17 nM. Work on B8 yielded an IC50 of 0.1 nM. B9 showed an IC50 of 1.3 nM. Binder B10 has an IC50 of 0.18 nM.
